From patent publication US20150104450A1

Columns and labels:
[1] = target: cynomolgus monkey CD86 extracellular domain with FLAG 10xhis tag (cynomolgus monkey); assay: SPR (Biacore 2000), ratio of KD
[2] = target: human CD86 extracellular domain with FLAG 10xhis tag (human); assay: SPR (Biacore 2000), ratio of KD
[3] = target: cynomolgus monkey CD86 extracellular domain with FLAG 10xhis tag (cynomolgus monkey); assay: SPR (Biacore 2000), CTLA-4-Fc amine-coupled to CM5, ligand ECD as analyte, monovalent affinity
[4] = target: human CD86 extracellular domain with FLAG 10xhis tag (human); assay: as above

cynomolgus monkey CD86 extracellular domain with FLAG 10xhis tag (cynomolgus monkey), sequence (chain, as listed by the source limits assumed, form in doubt): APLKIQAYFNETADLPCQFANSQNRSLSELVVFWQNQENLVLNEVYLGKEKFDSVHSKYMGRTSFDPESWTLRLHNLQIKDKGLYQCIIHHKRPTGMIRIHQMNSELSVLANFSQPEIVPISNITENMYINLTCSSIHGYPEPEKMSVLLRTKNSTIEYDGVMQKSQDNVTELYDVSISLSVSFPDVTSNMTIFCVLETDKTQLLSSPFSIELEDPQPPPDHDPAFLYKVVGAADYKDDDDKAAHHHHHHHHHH
human CD86 extracellular domain with FLAG 10xhis tag (human), sequence (chain, as listed by the source limits assumed, form in doubt): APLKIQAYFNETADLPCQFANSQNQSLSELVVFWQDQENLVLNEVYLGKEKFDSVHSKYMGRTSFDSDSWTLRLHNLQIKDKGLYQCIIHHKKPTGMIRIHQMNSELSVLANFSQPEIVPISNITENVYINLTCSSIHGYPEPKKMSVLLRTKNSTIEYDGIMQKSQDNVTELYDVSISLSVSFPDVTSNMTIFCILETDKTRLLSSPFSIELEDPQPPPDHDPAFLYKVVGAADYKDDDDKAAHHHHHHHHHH

wild type CTLA-4 (SEQ ID NO: 35) in Fc fusion format
fold-improvement in affinity over wild type CTLA-4 in Fc fusion format [1]: 1 fold | fold-improvement in affinity over wild type CTLA-4 in Fc fusion format [2]: 1 fold | Kd [3]: 6.53 µM | Kd [4]: 6.42 µM
